Test results as given in patent publication US20250270315A1 (ELPISCIENCE SUZHOU BIOPHARMA, published 2025).

Target: T1, cyno SIRPγ ECD recombinant protein (cyno)
T1 construct: extracellular domain
Test: ELISA, cyno SIRPγ ECD

B1: 025c (antibody, V domains shown)
VH: EVQLQQSGAELVKPGASVKLSCTASGFNIKDYYMHWVKQRTEQGLEWIGRIDPEDGETKYAPKFQGKATITADTSSNTAYLQLSSLTSEDTAVYYCDRGLAYWGQGTLVTVSA
VL: QIVLTQSPAIMSASPGEKVTLTCSASSSVSSSYLYWYQQKPGSSPKLWIYSTSNLASGVPARFSGSGSGTSYSLTISSMEAEDAASYFCHQWSSYPYTFGGGTKLEIK
notes: also called chimeric antibody 025c; parental antibody of 025c
EC50: 0.36 nM | TOP OD450: 3.07 OD450
